{"source": "patent US20030167129A1", "about": "“Binding compounds and methods for identifying binding compounds” (priority 2000, published 2003)", "key": {"CXCR4": {"target": "T1, CXCR4 (Homo sapiens, UniProt P61073)", "T1 construct": "A full-length clone was not isolated with the 3′ and 5′ primers; however, two halves were isolated and ligated together; made in house; host or cells: High Five (Trichoplusia ni) insect cells, baculovirus; membrane preparation", "T1 sequence (P61073 whole entry)": "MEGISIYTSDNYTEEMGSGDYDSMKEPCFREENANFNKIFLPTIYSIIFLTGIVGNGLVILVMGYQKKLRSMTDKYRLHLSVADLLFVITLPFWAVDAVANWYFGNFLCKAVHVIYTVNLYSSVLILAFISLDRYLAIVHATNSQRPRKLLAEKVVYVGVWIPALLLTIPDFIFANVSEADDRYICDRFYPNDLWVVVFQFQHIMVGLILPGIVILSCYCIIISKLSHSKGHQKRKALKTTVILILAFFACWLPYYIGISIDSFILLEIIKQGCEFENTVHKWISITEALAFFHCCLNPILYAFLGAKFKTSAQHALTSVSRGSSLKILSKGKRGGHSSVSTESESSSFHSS", "experiment": "radioligand binding assay, [125I]-SDF-1α on membrane preparations of GST-CXCR4 (High Five)", "settings": "increasing [125I]-SDF-1α 0.5 nM to 10 nM; GST-CXCR4 (High Five) membranes; FIG. 7A; read-out: KD, saturation binding", "protocol": "Relative affinities were measured by modifying the radiolabel binding assay used in receptor purification. Therefore, the ability of these peptides to displace [1^251]-SDF-1 from purified CXCR4 membranes was measured.\nWhole cells from Sf9 and High five cell lines were lysed using hypotonic buffers (10 mM Tris, pH 7.4, 5 mM EDTA), and membrane preparations were made by homogenization and centrifugation using standard techniques known to those skilled in the art. […] For filtration and washing, the reaction was transferred to Millipore Multiscreen filter plates (HATF 0.45 μm; pre-blocked with 10% BSA) (Bedford, Mass.), filtered using vacuum, washed 4-5 times with 200 μL ice-cold buffer, and radioactive counts bound were detected using scintillation counting. All points were done in triplicate. Uninfected cells were used as a control for this experiment. […] Analyses of KD and IC50 were performed using non-linear curve fitting in Kaleidagraph (software program sold by Synergy Software, Reading, Pa.).\nThe affinity for the receptor was determined using standard radioligand displacement methodology."}, "SH2 (src)": {"target": "T2, SH2 (src) (Homo sapiens, UniProt P12931)", "T2 construct": "SH2 (src)", "settings": "binding domain SH2 (src); cited from earlier work"}, "HIV IIIb": {"tested_on": "HIV IIIb", "assay_type": "cell-based, HIV-1", "method": "Several of these peptides have also been screened for activity in inhibition of HIV infectivity and determined to be effective in specifically blocking the entrance of HIV into cells with EC50's in the nM range. For example, the assays depicted in FIG. 12 confirm the inhibition of HIV infection by CXCR4 peptide inhibitors.\nThe anti-HIV activity of exemplary compounds was tested using established adherent HELA cells or Magi cell-based (Magi cell line incorporating the reporter genes) cell line infected with a variety of HIV-1 isolates. Inhibitory activity was determined using a reporter system. The cell line was modified to contain the gene for the HIV-LTR (long terminal repeat) promoter which is used by HIV after infection. This gene was coupled to an enzyme, β-galactosidase, which can cleave a substrate, CPRG (Chlorophenol red β-D-galactoside) which gives rise to a colored signal or FDG (Fluorescein di-Galactoside) which gives rise to a fluorescent signal. Thus, if the cell becomes infected with HIV, it couples to the HIV-LTR promoter, producing the enzyme β-galactosidase, which then cleaves the CPRG substrate giving rise to a measurable absorbance signal, for example, at or about 595 nm. […]\nMeasurements were taken four days after infection. […] EC50's were determined graphically using Kaleidagraph, a software program sold by Synergy Software, Reading, PA. […]"}}, "note": "pEC50, pKd: −log10 of the molar value. Where a SMILES comes first, the peptide text is derived from it. Where no end group is shown, it is not given here. [ ]: non-standard residue; d: D form. pY = N[C@@H](Cc1ccc(OP(=O)(O)O)cc1)C(=O)O; 2Nal = N[C@@H](Cc1ccc2ccccc2c1)C(=O)O; Tic = O=C(O)[C@@H]1Cc2ccccc2CN1", "data": [{"compound": "[^125I]-SDF-1α: radiolabeled SDF-1α, the radioligand of the CXCR4 binding assay", "values": [{"measurement": "pKd", "setting": "CXCR4", "result": 8.49}]}, {"compound": "pYEEIY ([pY]EEIY)", "values": [{"measurement": "pKd", "setting": "SH2 (src)", "result": 7.00}]}, {"compound": "CC[C@H](C)[C@H](NC(=O)[C@H](CC(C)C)NC(=O)[C@H](CO)NC(=O)[C@H](CCCNC(=N)N)NC(=O)[C@H](C)N)C(=O)N[C@@H](Cc1ccc2ccccc2c1)C(=O)N[C@@H](CCCNC(=N)N)C(=O)N1Cc2ccccc2C[C@H]1C(=O)N[C@@H](C)C(=O)N[C@@H](CCCNC(=N)N)C(=O)N[C@@H](CCCNC(=N)N)C(=O)N[C@@H](Cc1ccc2ccccc2c1)C(=O)N[C@@H](CCCNC(=N)N)C(=O)N[C@@H](CCCNC(=N)N)C(N)=O", "note": "[CPI-1500, ARSLI(2-Nal)R(Tic)ARR(2-Nal)RR] (H-ARSLI[2Nal]R[Tic]ARR[2Nal]RR-NH2; N-terminus assumed)", "values": [{"measurement": "viral specificity", "setting": "HIV IIIb; HIV IIIb versus R5 virus 9881", "result": "specificity for the HIV IIIb over the R5 virus 9881"}, {"measurement": "pEC50", "setting": "HIV IIIb; HIV IIIb, FIG. 12A, read-out: EC50, inhibition of infection of HIV IIIb", "result": 6.55}]}]}
